On to Human α-thrombin, for which the “cleavage of the peptide by thrombin, HPLC of the intact peptide, 75 µM peptide, 23 nM thrombin, 37 °C” value with BRI-T218 is given as “completely converted to the cleavage products within two hours under the specific experimental conditions”; in the series on BRI-T208 it was “BRI-T208 is significantly more resisitent to thrombin cleavage than BRI-T218”.

The values are drawn from patent US20140113854.
